Data from US8158585B2, “Cross-β structure comprising amyloid-binding proteins and methods for detection of the cross-β structure, for modulating cross-β structures fiber formation and modulating cross-β structure-mediated toxicity” (CrossBeta Biosciences B.V., priority 2002, dated 2012).
Where no end group is shown, it is not given here.

Legend:
tPA = target: T1, tPA (Homo sapiens, UniProt P00750); assay: ELISA: binding of tPA to glycated albumin and Hb; settings: g6p-glycated protein immobilized
T1 construct: purchased Boehringer-Ingelheim (Germany)
Description: Binding of tPA to albumin-g6p (four-week and 23-week incubations), albumin-glyceraldehyde, control albumin, human Hb-g6p (ten-week incubation), Hb control, or to Aβ (1-40) was tested using an enzyme-linked immunosorbent assay (ELISA) set-up. Albumin-g6p and control albumin (2.5 μg ml^−1 in coat buffer, 50 mM Na2CO3/NaHCO3 pH 9.6, 0.02% m/v NaN3, 50 μl/well) were immobilized for one hour at room temperature in 96-well protein Immobilizer plates (Exiqon, Vedbaek, Denmark). Aβ (1-40) (10 μg ml^−1 in coat buffer) was immobilized for 75 minutes at room temperature in a 96-well peptide Immobilizer plate (Exiqon, Vedbaek, Denmark). Control wells were incubated with coat buffer only. After a wash step with 200 μl of PBS/0.1% v/v Tween 20, plates were blocked with 300 μl of PBS/1% v/v Tween 20, for two hours at room temperature while shaking. All subsequent incubations were performed in PBS/0.1% v/v Tween 20 for one hour at room temperature while shaking, with volumes of 50 μl per well. After each incubation, wells were washed five times with 200 μl of PBS/0.1% v/v Tween 20. Increasing amounts of f.l. tPA or K2-P tPA was added in triplicate to coated wells and to control wells. […] Absorbance was read at 490 nm on a Vmax kinetic microplate reader (Molecular Devices, Sunnyvale, Calif., USA).

Aβ = target: T2, Aβ (Homo sapiens, UniProt P05067); assay: Solid-phase binding ELISA of tPA, plasminogen and plasmin to coated Aβ
T2 construct: Peptide Aβ (1-40), containing amino acids as present in the described human Alzheimer peptide; purchased Pepscan, Inc. or peptide synthesis facility of the Netherlands Cancer Institute; host or cells: chemical synthesis
Description: FIG. 3 is a set of graphs depicting binding of tPA, plasminogen and plasmin to Aβ. Aβ was coated onto plastic 96-well plates. Increasing concentrations of either (A) tPA or (B) plasmin(ogen) were allowed to bind to the immobilized peptide. After extensive washing, tPA and plasmin(ogen) binding was assessed by enzyme-linked immunosorbent assays using anti-tPA and anti-plasminogen antibodies. Binding of (C) tPA and (D) plasmin to Aβ in the presence of 50 mM ε-aminocaproic acid (ε-ACA) was assessed as in A and B.
To test whether tPA, plasminogen and plasmin bind Aβ, solid-phase binding assays were performed. Aβ was coated onto plastic 96-well plates and binding of the peptide to either plasmin(ogen) or to tPA was assessed by overlaying the coated peptide with increasing concentrations of either tPA, plasminogen or plasmin. Binding was assessed using specific antibodies to either plasmin(ogen) or to tPA by performing ELISA. […] However, activated plasminogen (plasmin) does bind to Aβ and does so with a kD of 47 nM. […] To test this, use was made of the lysine analogue ε-aminocaproic acid (εACA) and binding of plasmin and tPA to Aβ was tested in its presence. […] In contrast, εACA has no effect on the tPA-Aβ interaction (FIG. 3, Panel C). Thus, it was concluded that plasmin binds to free lysines that were generated during the incubation period, presumably via its lysine-binding Kringle domain(s). In line with this, the kD of plasminogen Kringle domain binding to free lysines in fibrin is similar to the kD for plasmin binding to Aβ.

[1] = system: differentiated N1E-115 cells; assay: N1E-115 cell detachment (methylene blue staining); assay type: cell-based, mouse
Description: FIG. 4 is a set of graphs illustrating stimulation of tPA-mediated plasmin formation by Aβ and synergistic stimulation of cell detachment by plasminogen and Aβ. Panel A depicts that plasminogen (200 μg/ml) and tPA (200 pM) were incubated with Aβ (5 μM) or control buffer. Samples were taken from the reaction mixture at the indicated periods of time and plasmin activity was measured by conversion of the chromogenic plasmin substrate S-2251 at 405 nm. […] After 48 hours, the dead cells were washed away and the remaining adherent cells were stained with methylene blue. Plasmin cannot prevent Aβ-induced cell detachment. Panel C illustrates that N1E-115 cells were differentiated and received the indicated concentrations of plasminogen in the presence or absence of 10 μM Aβ. After 24 hours, cell detachment was assessed. […] Panel D is an immunoblot analysis of plasmin formation and laminin degradation. Differentiated N1E-115 cells were treated with or without Aβ (10 μM) in the absence or presence of added plasminogen. Addition of Aβ results in the formation of plasmin (bottom panel) and in degradation of laminin (top panel).
FIG. 5 depicts graphs illustrating that carboxypeptidase B inhibits Aβ-stimulated tPA-mediated plasmin formation and cell detachment. […] Samples were taken from the reaction mixture at the indicated periods of time and plasmin activity was measured by conversion of the chromogenic plasmin substrate S-2251 at 405 nm. The reaction was performed in the absence or the presence of 50 μg ml^−1 carboxypeptidase B (CpB) and in the absence or presence of 3.5 μM carboxypeptidase inhibitor (CPI). CpB greatly attenuates A-stimulated plasmin formation. […] After 24 hours, the cells were photographed. Panel C illustrates that, subsequently, the cells were washed once with PBS and the remaining cells were quantified as percentage-adhered cells by methylene blue staining. In Panel D, the cells were treated as in Panels B and C and medium and cell fractions were collected and analyzed by Western blot using an anti-plasmin(ogen) antibody. Aβ stimulates plasmin formation that is inhibited by CpB.
N1E-115 mouse neuroblastoma cells were routinely cultured in DMEM containing 5% FCS, supplemented with antibiotics. Cells were differentiated into post-mitotic neurons.^52 The cells were exposed to Aβ (50 μg ml^−1) for 24 hours in the presence or absence of 20 μg ml^−1 plasminogen in the presence or absence of 50 μg ml^−1 CpB. Cells were photographed, counted and lysed by the addition of 4× sample buffer (250 mM Tris pH 6.8, 8% SDS, 10% glycerol, 100 mM DTT, 0.01% w/v bromophenol blue) to the medium. The lysate, containing both adherent and floating (presumably dying and/or dead) cells, as well as the culture medium, were analyzed for the presence of plasminogen and plasmin, as well as for laminin, by Western blot analysis using specific antibodies against plasminogen (MoAb 3642, American Diagnostics), laminin (PoAb L9393, Sigma).

albumin-g6p = target: T3, albumin-g6p (Bos taurus, UniProt P02769); assay: ELISA: binding of tPA-F-GST and RPTPμ-GST to glycated albumin; parameters: species or system bovine; settings: detection with anti-GST 2F3
T3 construct: Bovine serum albumin (BSA) fraction V pH 7.0; host or cells: bovine serum, fraction V
Description: (§1) Binding of tPA-F-GST and RPTPμ-GST to fibrous amyloids human Aβ (1-40) and albumin-[…] was assayed with an ELISA. In brief, human Aβ (1-40), albumin-[…], or buffer only, were coated on a peptide I Immobilizer or a protein I Immobilizer, respectively. Wells were incubated with the purified GST-tagged constructs or control medium and binding was detected using primary anti-GST monoclonal antibody 2F3 and RAMPO. The wells were also incubated with […] of tPA in the presence of 10 mM of εACA. Binding of tPA is independent of the lysyl binding site located at the kringle 2 domain. Binding of tPA was measured using primary antibody 374B and RAMPO. Experiments were performed in triplicate and blank readings of non-coated wells were substracted.

Aβ (1-40) = Aβ (1-40) (Homo sapiens, UniProt P05067); assay: ELISA: binding of tPA-F-GST and RPTPμ-GST to human Aβ (1-40); parameters: Peptide Aβ (1-40), containing amino acids as present in the described human Alzheimer peptide; purchased Pepscan, Inc. (The Netherlands) or peptide synthesis facility at the Netherlands Cancer Institute; host or cells: synthetic peptide; settings: detection with anti-GST 2F3
Description: as §1

Aβ fibrils = target: T4, Aβ fibrils (Homo sapiens, UniProt P05067); assay: Amyloid pull-down with insoluble Aβ fibers; assay type: binding; settings: conditioned BHK medium
T4 construct: Peptide Aβ (1-40), containing amino acids as present in the described human Alzheimer peptide; purchased Pepscan, Inc. (The Netherlands) or peptide synthesis facility at the Netherlands Cancer Institute; host or cells: synthetic peptide
Description: Conditioned medium of BHK cells expressing GST-tagged tPA F, F-EGF, EGF, K1, F-EGF-K1, FXII F, HGFa F, Fn F4, Fn F5, Fn F4-5 and GST was used for amyloid binding assays. At first, constructs were adjusted to approximately equal concentration using Western blots. Qualitative binding of the recombinant fragments were evaluated using a “pull-down” assay. To this end, the recombinantly made fragments were incubated with either Aβ or IAPP fibrils. Since these peptides form insoluble fibers, unbound proteins can be easily removed from the fibers following centrifugation. The pellets containing the bound fragments were subsequently washed several times. Bound fragments were solubilized in SDS-sample buffer and analyzed by PAGE, as were unbound proteins in the supernatant fraction and starting material. The gels were analyzed using immunoblotting analysis with the anti-GST antibody Z-5.

T3 sequence (P02769 25-607): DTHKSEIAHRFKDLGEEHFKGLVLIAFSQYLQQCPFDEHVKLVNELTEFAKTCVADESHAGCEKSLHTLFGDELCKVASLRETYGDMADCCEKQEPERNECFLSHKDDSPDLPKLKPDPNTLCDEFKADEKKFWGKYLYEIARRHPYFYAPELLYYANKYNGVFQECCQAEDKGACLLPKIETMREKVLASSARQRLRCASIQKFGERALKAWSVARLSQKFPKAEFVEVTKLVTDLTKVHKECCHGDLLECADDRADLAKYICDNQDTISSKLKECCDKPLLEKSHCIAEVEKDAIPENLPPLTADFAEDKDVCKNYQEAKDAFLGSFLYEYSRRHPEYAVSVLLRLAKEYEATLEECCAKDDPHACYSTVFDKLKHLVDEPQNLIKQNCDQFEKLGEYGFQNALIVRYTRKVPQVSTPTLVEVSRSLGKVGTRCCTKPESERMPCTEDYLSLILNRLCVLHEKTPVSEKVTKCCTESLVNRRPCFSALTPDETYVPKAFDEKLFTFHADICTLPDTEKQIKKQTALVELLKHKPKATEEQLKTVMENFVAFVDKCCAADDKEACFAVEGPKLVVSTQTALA
T2 sequence (P05067 672-711): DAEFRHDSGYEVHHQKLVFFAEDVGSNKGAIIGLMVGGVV
Sequence of Aβ (1-40) (P05067 672-711): as above
T4 sequence (P05067 672-711): as above
T1 sequence (P00750 36-562): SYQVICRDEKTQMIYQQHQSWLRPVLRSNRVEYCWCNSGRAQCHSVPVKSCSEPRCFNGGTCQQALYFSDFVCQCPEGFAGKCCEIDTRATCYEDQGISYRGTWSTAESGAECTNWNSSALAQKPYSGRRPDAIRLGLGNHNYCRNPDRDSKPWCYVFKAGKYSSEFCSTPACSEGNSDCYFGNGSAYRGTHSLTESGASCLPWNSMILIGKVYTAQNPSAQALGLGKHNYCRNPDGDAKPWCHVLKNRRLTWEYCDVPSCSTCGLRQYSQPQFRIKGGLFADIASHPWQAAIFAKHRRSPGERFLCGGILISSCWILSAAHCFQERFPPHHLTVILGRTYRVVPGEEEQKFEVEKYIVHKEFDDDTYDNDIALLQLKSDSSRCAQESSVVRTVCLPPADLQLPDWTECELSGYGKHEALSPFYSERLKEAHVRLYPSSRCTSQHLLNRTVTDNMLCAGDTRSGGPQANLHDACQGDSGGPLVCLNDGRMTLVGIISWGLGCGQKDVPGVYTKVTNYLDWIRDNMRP

Molecule: Hb-g6p: human hemoglobin incubated with glucose-6-phosphate
- tPA binding (tPA): high-affinity tPA binding

Molecule: plasminogen: inactive precursor of plasmin, cleaved by tPA
- binding to Aβ (Aβ; Aβ coated onto plastic 96-well plates): No detectable binding
- cell adhesion in the absence of Aβ ([1]; 24 hours): no effect
- minimal levels required to potentiate Aβ-induced cell detachment ([1]; 24 hours): 10 to 20 µg/mL
- effect on Aβ-induced cell detachment ([1]; suboptimal Aβ (10 μM), low plasminogen, 24 hours): dramatic potentiating effect

Molecule: tPA-F-GST: amino-terminal finger domain (F) of human tPA, residues Ser1-Ser50, with GST tag (SYQVICRDEKTQMIYQQHQSWLRPVLRSNRVEYCWCNSGRAQCHSVPVKS-{GST}; cysteine pairing not given here)
- binding of GST-tagged construct to albumin-g6p (albumin-g6p): bound
- binding of GST-tagged construct to human Aβ (1-40) (Aβ (1-40)): bound
- binding to Aβ fibers (pull-down, Western blot) (Aβ fibrils): Efficient binding

B1: RPTPμ-GST: extracellular domain of receptor-like protein tyrosine phosphatase μ with GST tag, control (protein, UniProt P28827 21-742, looked up)
extracellular domain: ETFSGGCLFDEPYSTCGYSQSEGDDFNWEQVNTLTKPTSDPWMPSGSFMLVNASGRPEGQRAHLLLPQLKENDTHCIDFHYFVSSKSNSPPGLLNVYVKVNNGPLGNPIWNISGDPTRTWNRAELAISTFWPNFYQVIFEVITSGHQGYLAIDEVKVLGHPCTRTPHFLRIQNVEVNAGQFATFQCSAIGRTVAGDRLWLQGIDVRDAPLKEIKVTSSRRFIASFNVVNTTKRDAGKYRCMIRTEGGVGISNYAELVVKEPPVPIAPPQLASVGATYLWIQLNANSINGDGPIVAREVEYCTASGSWNDRQPVDSTSYKIGHLDPDTEYEISVLLTRPGEGGTGSPGPALRTRTKCADPMRGPRKLEVVEVKSRQITIRWEPFGYNVTRCHSYNLTVHYCYQVGGQEQVREEVSWDTENSHPQHTITNLSPYTNVSVKLILMNPEGRKESQELIVQTDEDLPGAVPTESIQGSTFEEKIFLQWREPTQTYGVITLYEITYKAVSSFDPEIDLSNQSGRVSKLGNETHFLFFGLYPGTTYSFTIRASTAKGFGPPATNQFTTKISAPSMPAYELETPLNQTDNTVTVMLKPAHSRGAPVSVYQIVVEEERPRRTKKTTEILKCYPVPIHFQNASLLNSQYYFAAEFPADSLQAAQPFTIGDNKTYNGYWNTPLLPYKSYRIYFQAASRANGETKIDCVQVATKGAATPKPVPEPEKQTDHTVK
modifications: extracellular domain GST tag
notes: extracellular domain of receptor-like protein tyrosine phosphatase μ with GST tag, control
- binding of GST-tagged construct to albumin-g6p (albumin-g6p): no binding
- binding of GST-tagged construct to human Aβ (1-40) (Aβ (1-40)): no binding

B2: plasmin: activated plasminogen (protein)
chain: KVYLSECKTGNGKNYRGTMSKTKNGITCQKWSSTSPHRPRFSPATHPSEGLEENYCRNPDNDPQGPWCYTTDPEKRYDYCDILECEEECMHCSGENYDGKISKTMSGLECQAWDSQSPHAHGYIPSKFPNKNLKKNYCRNPDRELRPWCFTTDPNKRWELCDIPRCTTPPPSSGPTYQCLKGTGENYRGNVAVTVSGHTCQHWSAQTPHTHNRTPENFPCKNLDENYCRNPDGKRAPWCHTTNSQVRWEYCKIPSCDSSPVSTEQLAPTAPPELTPVVQDCYHGDGQSYRGTSSTTTTGKKCQSWSSMTPHRHQKTPENYPNAGLTMNYCRNPDADKGPWCFTTDPSVRWEYCNLKKCSGTEASVVAPPPVVLLPDVETPSEEDCMFGNGKGYRGKRATTVTGTPCQDWAAQEPHRHSIFTPETNPRAGLEKNYCRNPDGDVGGPWCYTTNPRKLYDYCDVPQCAAPSFDCGKPQVEPKKCPGRVVGGCVAHPHSWPWQVSLRTRFGMHFCGGTLISPEWVLTAAHCLEKSPRPSSYKVILGAHQEVNLEPHVQEIEVSRLFLEPTRKDIALLKLSSPAVITDKVIPACLPSPNYVVADRTECFITGWGETQGTFGAGLLKEAQLPVIENKVCNRYEFLNGRVQSTELCAGHLAGGTDSCQGDSGGPLVCFEKDKYILQGVTSWGLGCARPNKPGVYVRVSRFVTWIEGVMRNN
- binding to Aβ in the presence of εACA (Aβ; 50 mM ε-aminocaproic acid): completely abolished
- effect on Aβ-induced cell detachment ([1]; plasmin added with Aβ (25 μM), 48 hours): unable to ameliorate
